Results taken from the FLAb antibody collection.

B1: unnamed (protein)
chain 1: EVQLVESGGGLVRPGGSLRLSCAASGFTFSNYDMHWVRQATGKGLEWVSAITAAGDIYYPGSVKGRFTISRENAKNSLYLQMNSLRAGDTAVYYCARGRYSGSGSYYNDWFDPWGQGTLVTVSS
chain 2: EIVLTQSPATLSLSPGERATLSCRASQSVSSYLAWYQQKPGQAPRLLIYDASNRATGIPARFSGSGSGTDFTLTISSLEPEDFAVYYCQQRSNWPLTFGGGTKVEIK
B2: unnamed (protein)
chain 1: EVKLEESGGGLVQPGGSMKLSCVASGFIFSNHWMNWVRQSPEKGLEWVAEIRSKSINSATHYAESVKGRFTISRDDSKSAVYLQMTDLRTEDTGVYYCSRNYYGSTYDYWGQGTTLTVSS
chain 2: DILLTQSPAILSVSPGERVSFSCRASQFVGSSIHWYQQRTNGSPRLLIKYASESMSGIPSRFSGSGSGTDFTLSINTVESEDIADYYCQQSHSWPFTFGSGTNLEVK
B3: unnamed (protein)
chain 1: QVQLVQSGAEVMKPGSSVKVSCKASGYTFSWYWLEWVRQAPGHGLEWMGEIDPGTFTTNYNEKFKARVTFTADTSTSTAYMELSSLRSEDTAVYYCARFSHFSGSNYDYFDYWGQGTLVTVSS
chain 2: EIVMTQSPATLSVSPGERATLSCRASQSIGTNIHWYQQKPGQAPRLLIYYASESISGIPARFSGSGSGTEFTLTISSLQSEDFAVYYCQQSWSWPTTFGGGTKVEIK
B4: unnamed (protein)
chain 1: EVQLVESGGGLVQPGGSLRLSCAASGFSFSDFAMSWVRQAPGKGLEWVATIGRVAFHTYYPDSMKGRFTISRDNSKNTLYLQMNSLRAEDTAVYYCARHRGFDVGHFDFWGQGTLVTVSS
chain 2: DIQMTQSPSSLSASVGDRVTITCRSSETLVHSSGNTYLEWYQQKPGKAPKLLIYRVSNRFSGVPSRFSGSGSGTDFTLTISSLQPEDFATYYCFQGSFNPLTFGQGTKVEIK
B5: unnamed (protein)
chain 1: QVQLVQSGGGLVQPGGSLRLSCAASGFTFSSYYMSWVRQAPGKGLEWVSGIYSDGTTHYGDSVKGRFTISRDNAKNTVYLQLNSLRAEDTAMYYCAKGAGPTWWYALDAWGQGTLVTVSS
chain 2: DIQLTQSPSSVSVSVGERVTIDCKSSQSVLSASNTYLNWYQQKPGQAPQLLIYYASTRESGVPDRFSGSGSGTDFTLTISSLQAEDAAVYYCQQAYRAPVTFGQGTKLEIK
B6: unnamed (protein)
chain 1: EVQLVESGGGVVQPGRSLRLSCSASGFIFSRYDMSWVRQAPGKGLEWVAYISHGGAGTYYPDSVKGRFTISRDNSKNTLFLQMDSLRPEDTGVYFCARGGVTKGYFDVWGQGTPVTVSS
chain 2: DIQMTQSPSSLSASVGDRVTITCRASGNIHNYLTWYQQTPGKAPKLLIYNAKTLADGVPSRFSGSGSGTDYTFTISSLQPEDIATYYCQHFWSIPYTFGQGTKLQIT
B7: unnamed (protein)
chain 1: QVQLVQSGAEVKKPGSSVKVSCKASGYSFTDYHIHWVRQAPGQGLEWMGVINPMYGTTDYNQRFKGRVTITADESTSTAYMELSSLRSEDTAVYYCARYDYFTGTGVYWGQGTLVTVSS
chain 2: DIVMTQTPLSLSVTPGQPASISCRSSRSLVHSRGNTYLHWYLQKPGQSPQLLIYKVSNRFIGVPDRFSGSGSGTDFTLKISRVEAEDVGVYYCSQSTHLPFTFGQGTKLEIK
B8: unnamed (protein)
chain 1: QVQLVESGGGVVQPGRSLRLSCAASGFTFSSYGMHWVRQAPGKGLEWVAVISYEESNRYHADSVKGRFTISRDNSKITLYLQMNSLRTEDTAVYYCARDGGIAAPGPDYWGQGTLVTVSS
chain 2: DIVMTQSPLSLTVTPGEPASISCRSSQSLLYSNGYNYLDWYLQKPGQSPQVLISLGSNRASGVPDRFSGSGSGTDFTLKISRVEAEDVGVYYCMQARQTPFTFGPGTKVDIR
B9: unnamed (protein)
chain 1: QVQLQESGPGLVKPSETLSLTCTVSGFSLTSYIVDWIRQPPGKGLEWIGVIWAGGSTGYNSALRSRVSITKDTSKNQFSLKLSSVTAADTAVYYCASAAYYSYYNYDGFAYWGQGTLVTVSS
chain 2: DVVMTQSPLSLPVTLGQPASISCKSSQSLLYTDGKTYLYWFLQRPGQSPRRLIYLVSKLDSGVPDRFSGSGSGTDFTLKISRVEAEDVGVYYCLQSTHFPHTFGGGTKVEIK
B10: unnamed (protein)
chain 1: QVTLRESGPALVKPTQTLTLTCTVSGFSLSAYSVNWIRQPPGKALEWLAMIWGDGKIVYNSALKSRLTISKDTSKNQVVLTMTNMDPVDTATYYCAGDGYYPYAMDNWGQGSLVTVSS
chain 2: DIVMTQSPDSLSVSLGERATINCRASKSVDSYGNSFMHWYQQKPGQPPKLLIYLASNLESGVPDRFSGSGSGTDFTLTISSLQAEDVAVYYCQQNNEDPRTFGGGTKVEIK
B11: unnamed (protein)
chain 1: QVQLVQPGAEVVKPGASVKLSCKTSGYTFTSNWMHWVKQAPGQGLEWIGEIDPSDSYTNYNQNFQGKAKLTVDKSTSTAYMEVSSLRSDDTAVYYCARGSNPYYYAMDYWGQGTSVTVSS
chain 2: EIVLTQSPAIMSASPGERVTMTCSASSGVNYMHWYQQKPGTSPRRWIYDTSKLASGVPARFSGSGSGTSYSLTISSMEPEDAATYYCHQRGSYTFGGGTKLEIK
B12: unnamed (protein)
chain 1: QVQLKESGPGLVAPSQSLSITCTVSGFSVTNYGVHWVRQPPGKGLEWLGVIWAGGITNYNSAFMSRLSISKDNSKSQVFLKMNSLQIDDTAMYYCASRGGHYGYALDYWGQGTSVTVSS
chain 2: SIVMTQTPKFLLVSAGDRVTITCKASQSVSNDVTWYQQKAGQSPKLLIYSASNRYSGVPDRFTGSGYGTAFTFTISTVQAEDLAVYFCQQDYSSFGGGTKLEIK
B13: unnamed (protein)
chain 1: EVQLVESGGGVVQPGRSLRLSCSASGFDFTTYWMSWVRQAPGKGLEWIGEIHPDSSTINYAPSLKDRFTISRDNAKNTLFLQMDSLRPEDTGVYFCASLYFGFPWFAYWGQGTPVTVSS
chain 2: DIQLTQSPSSLSASVGDRVTITCKASQDVGTSVAWYQQKPGKAPKLLIYWTSTRHTGVPSRFSGSGSGTDFTFTISSLQPEDIATYYCQQYSLYRSFGQGTKVEIK
B14: unnamed (protein)
chain 1: EVQLLESGGGLVQPGGSLRLSCAASGFTFSIYSMNWVRQAPGKGLEWVSSIGSSGGTTYYADSVKGRFTISRDNSKNTLYLQMNSLRAEDTAVYYCAGSQWLYGMDVWGQGTTVTVSS
chain 2: DIQMTQSPSSLSASVGDRVTITCRSSQRIMTYLNWYQQKPGKAPKLLIFVASHSQSGVPSRFRGSGSETDFTLTISGLQPEDSATYYCQQSFWTPLTFGGGTKVEIK
B15: unnamed (protein)
chain 1: QVQLVESGGGVVQPGRSLRLSCAASGFTFSSFGMHWVRQAPGKGLEWVAYISSGSFTIYYADSVKGRFTISRDNSKNTLYLQMNSLRAEDTAVYYCARMRKGYAMDYWGQGTLVTVSS
chain 2: DVVMTQSPLSLPVTLGQPASISCRSSQIIIHSDGNTYLEWFQQRPGQSPRRLIYKVSNRFSGVPDRFSGSGSGTDFTLKISRVEAEDVGVYYCFQGSHVPHTFGQGTKVEIK
B16: unnamed (protein)
chain 1: EVQLLESGGGLVQPGGSLRLSCAASGFTFSHYIMMWVRQAPGKGLEWVSGIYSSGGITVYADSVKGRFTISRDNSKNTLYLQMNSLRAEDTAVYYCAYRRIGVPRRDEFDIWGQGTMVTVSS
chain 2: DIQMTQSPSTLSASVGDRVTITCRASQSISSWLAWYQQKPGKAPKLLIYKASTLESGVPSRFSGSGSGTEFTLTISSLQPDDFATYYCQQYNTYWTFGQGTKVEIK
B17: unnamed (protein)
chain 1: QVQLVQSGAEVKKPGSSVKVSCKASGYTFTDYNMHWVRQAPGQGLEWIGYIYPYNGGTGYNQKFKSKATITADESTNTAYMELSSLRSEDTAVYYCARGRPAMDYWGQGTLVTVSS
chain 2: DIQMTQSPSSLSASVGDRVTITCRASESVDNYGISFMNWFQQKPGKAPKLLIYAASNQGSGVPSRFSGSGSGTDFTLTISSLQPDDFATYYCQQSKEVPWTFGQGTKVEIK
B18: unnamed (protein)
chain 1: EVQLVQSGAEVKKPGASVKVSCKASGYRFTNYWIHWVRQAPGQGLEWIGGINPGNNYATYRRKFQGRVTMTADTSTSTVYMELSSLRSEDTAVYYCTREGYGNYGAWFAYWGQGTLVTVSS
chain 2: DVQVTQSPSSLSASVGDRVTITCRSSQSLANSYGNTFLSWYLHKPGKAPQLLIYGISNRFSGVPDRFSGSGSGTDFTLTISSLQPEDFATYYCLQGTHQPYTFGQGTKVEIK
B19: unnamed (protein)
chain 1: EVQLVESGGGLVQPGGSLRLSCAASGFTFNNYAMNWVRQAPGKGLDWVSTISGSGGTTNYADSVKGRFIISRDSSKHTLYLQMNSLRAEDTAVYYCAKDSNWGNFDLWGRGTLVTVSS
chain 2: not shown
B20: unnamed (protein)
chain 1: EVQLVESGGGLVKPGGSLKLSCAASGFKFSRYAMSWVRQAPGKRLEWVATISSGGSYIYYPDSVKGRFTISRDNVKNTLYLQMSSLRSEDTAMYYCARRDYDLDYFDSWGQGTLVTVSS
chain 2: DIQMTQSPSSLSASVGDRVTITCKASRDIRSYLTWYQQKPGKAPKTLIYYATSLADGVPSRFSGSGSGQDYSLTISSLESDDTATYYCLQHGESPFTLGSGTKLEIK

Test: patients with anti-drug antibodies; higher = more immunogenic

Point of comparison: B7, “patients with anti-drug antibodies” value 8.5%. Against it:
- B1 — lower, 3.6%
- B2 — higher, 30.5%
- B3 — lower, 6.3%
- B4 — higher, 18%
- B5 — lower, 0%
- B6 — higher, 16.8%
- B8 — lower, 1.8%
- B9 — lower, 4%
- B10 — higher, 30%
- B11 — lower, 0%
- B12 — higher, 100%
- B13 — lower, 0%
- B14 — lower, 7.4%
- B15 — lower, 0%
- B16 — lower, 7%
- B17 — lower, 0%
- B18 — lower, 2%
- B19 — lower, 3.9%
- B20 — higher, 15.8%
